Patent US20070237775A1 (Eli Lilly, published 2007)
Residue numbers refer to the chain shown, from its start.

T1: human ghrelin peptide spanning amino acids 20-28 (human)
T1 construct: also called hGhrelin 20-28
T1 peptide: KPPAKLQPR

T2: human ghrelin peptide spanning amino acids 18-28 (human)
T2 construct: also called hGhrelin 18-28; ghrelin peptide 18-28
T2 peptide: SKKPPAKLQPR

T3: human ghrelin peptide spanning amino acids 4-20 (human)
T3 peptide: FLSPEHQRVQQRKESKK

B1: Fab 3281 (Fab, V domains shown)
VH: QVQLQQSRAELAKPGASVKMSCKASGYTFTSYWMHWVKQGPGQGLEWIGYINPSTGYTEYTQKFKDKATLTADKSSSTAYMQLSSLTSEDSAVYYCATDGYDEDYWGQGTTLTVSS
VL: DAVMTQIPLTLSVTIGQPASISCRSSQSLGHSNGNTYLHWYLQKPGQSPKLLIYKVSNRFSGVPDRFSGSGSGTDFTLKISRVEAEDLGTYFCSQSTLVPWTFGGGTKLEIKR
notes: Murine Fab from an Omniclonal antibody library (immunized C57/Bl6 mice); kappa light chain (captured and detected with goat anti-mouse kappa)
B2: Fab 4281 (Fab, V domains shown)
VH: QVQLQQSRAELAKPGASVKMSCKASGYTFTSYWIHWIKQRPGQGLEWIGYIDPGIGNIEYNQKFQDKATLTADKSSSIVYMQLNRLTSEDSAVYYCATDGYDEDYWGQGTTLTVSS
VL: B1 VL with A2V, I7T, T10S, S12P, T14S, I15L, Q17D, P18Q, G30V
notes: Murine Fab, kappa light chain
B3: Fab 4731 (Fab, V domains shown)
VH: B1 VH
VL: B1 VL with A2V, I7T, T10S, S12P, T14S, I15L, Q17D, P18Q, G30V
notes: Murine Fab, kappa light chain

Assays:
[1] = target: T1, human ghrelin peptide spanning amino …; assay: peptide competition with full-length hGhrelin for the Fab
[2] = target: T2, human ghrelin peptide spanning amino …; assay: FLIPR calcium assay, peptide competing with hGhrelin for the Fab
Experimental: (§1) The wells are then washed twice with HBSS and 50 μL FLIPR buffer is then added per well.
(§2) Samples are prepared by combining 7.2 μl calcium concentrate (CaCl₂-2H₂O in water at 3.7 mg/ml mixed 1:1 with HBSS and filter sterilized) with 30 μl peptide, 30 μl Fab (of varying concentration), and 16.8 μl hGhrelin (2.5 μM stock) in 3.75% BSA/50% HBSS. The final concentration of the sample solution is 0.75% BSA, and calcium at approximately the same concentration as in the FLIPR buffer. Fifty microliters of the sample solution is added to the 50 μl FLIPR buffer in the well with the AV12 cells. The final concentration of the peptide is 100 nM and the final concentration of the hGhrelin is 0.83 nM. The cell plate is shaken for about 15 seconds prior to loading it into the FLIPR instrument. Test samples or control samples are added to each well, and read by a Fluorometric Imaging Plate Reader (Molecular Devices).
(§3) If there is no Fab or an irrelevant antibody present in the solution, the full-length hGhrelin will be free to bind the GHS-R1a receptor on the AV12 cells and signal transduction will occur resulting in comparatively high values in the assay. If a Fab is present that binds to the full-length hGhrelin in the solution, then the full-length hGhrelin binding to the GHS-R1a receptor is inhibited and signal transduction is thereby inhibited resulting in comparatively lower values in the assay. However, if a peptide (i.e., a fragment of human ghrelin) is also added to the solution and the Fab binds the peptide, then the full-length hGhrelin is not prevented from binding the GHS-R1a receptor, signal transduction is not inhibited, and the values in the assay are comparatively high. […] The peptides competing with hGhrelin for Fab binding were used in the assay at a concentration over 50 times that of hGhrelin.

[3] = target: T3, human ghrelin peptide spanning amino …; assay: as above
Experimental: as §1, §2, §3

Binder | binding result [1] | binding result [2] | binding result [3]
B1 | no binding | no binding (tested: peptide 100 nM) | no binding (tested: peptide 100 nM)
B2 | – | – | no binding (tested: peptide 100 nM)
B3 | – | – | no binding (tested: peptide 100 nM)
